Assay results from paper PMC11605055.

Biological target: T1, HIM-8 ZF1-2-CTD (Caenorhabditis elegans (N2), UniProt O18068 223-361)
T1 sequence: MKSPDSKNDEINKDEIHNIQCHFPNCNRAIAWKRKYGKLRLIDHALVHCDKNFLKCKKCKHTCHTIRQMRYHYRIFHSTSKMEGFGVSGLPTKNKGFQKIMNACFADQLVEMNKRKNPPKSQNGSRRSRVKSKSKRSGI
Experiment: ITC

B1: X PC motif TG to CA (dsDNA)
DNA 1: TTGGTCAGCACA
DNA 2: TGTGCTGACCAA
B1: no binding.

B2: X chromosome PC motif 12 bp (dsDNA)
DNA 1: TTGGTCAGTGCA
DNA 2: TGCACTGACCAA
B2 was tested, and the Kd was 430 ± 10 nM.
